Tests used:
[1] = target: T1, Human CD200R long isoform (human, UniProt Q8TD46 25-348); test: flow cytometry on CHO cells expressing the receptor; midpoint of titration, one-site saturation fit
T1 construct: Stably expressed on CHO cells; also called human CD200R long isoform on CHO cells
T1 chain: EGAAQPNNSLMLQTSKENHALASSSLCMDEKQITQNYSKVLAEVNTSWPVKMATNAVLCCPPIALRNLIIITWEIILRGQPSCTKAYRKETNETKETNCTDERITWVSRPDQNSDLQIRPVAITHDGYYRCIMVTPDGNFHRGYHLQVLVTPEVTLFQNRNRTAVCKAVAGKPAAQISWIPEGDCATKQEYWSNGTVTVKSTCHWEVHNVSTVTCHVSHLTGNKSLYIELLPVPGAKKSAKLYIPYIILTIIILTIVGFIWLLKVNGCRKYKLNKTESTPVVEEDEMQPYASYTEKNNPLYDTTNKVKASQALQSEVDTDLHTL
Experimental: (§1) To perform flow cytometry, CD200R-expressing CHO cells are counted using a Vicell counter and pelleted by centrifugation at 1200 RPM, aspirated and resuspended in phosphate buffered saline (PBS). Cells are counted again and after another centrifugation are adjusted to 10⁶ cells/mL in flow cytometry wash buffer (PBS w/10% NGS & 2% FBS & 0.05% NaN₃) with Fc block (BD Biosciences). Cells are blocked on ice for 15 minutes. Next the tubes are centrifuged, aspirated, and washed once with cold wash buffer. After the wash, the cells are adjusted to 10⁶ cells/mL in wash buffer and plated at […] (50 μL) in a 96-well tissue culture plate (Corning 3799). Antibody A is titrated (1:3 dilutions) on the 96-well polystyrene plates (Corning 3879) starting at 30 μg/mL (final concentration) in cold wash buffer. Next, Antibody A is transferred at 50 μL/well into the Corning 3799 plate containing cells. The plates are incubated on ice for 45 minutes then washed twice with 150 μL cold wash buffer. Next, 100 μL secondary Goat anti-human IgG Fc-PE (Jackson Cat. No. 109-116-098 or Jackson Cat. No. 109-116-088) is added at a 1:500 or 1:400 dilution in wash buffer and incubated for 45 minutes on ice. Plates are washed twice and 200 μL propidium iodide (1:1000 dilution in wash buffer; Molecular Probes Cat. No. P3566) is added as the cell viability stain. The plates are covered with foil on ice. Flow cytometry is then performed using a Fortessa instrument acquiring with FACS Diva software (both from Becton Dickinson) and analyzing with FlowJo (version 10.5.3).
(§2) Antibody A is tested for its binding to recombinantly expressed isoforms of both human and cynomolgus monkey CD200R and the related activating cynomolgus monkey CD200RLa protein on Chinese Hamster Ovary (CHO) cell line surfaces using flow cytometry. The antibody is titrated onto CHO cells expressing the polypeptide of interest. The flow cytometry binding curves are fit using the one-site saturation binding model in GraphPad Prism.

[2] = target: T2, Human CD200R short isoform (human, UniProt Q8TD46 46-348); test: as above
T2 construct: Stably expressed on CHO cells; also called human CD200R short isoform on CHO cells
T2 sequence: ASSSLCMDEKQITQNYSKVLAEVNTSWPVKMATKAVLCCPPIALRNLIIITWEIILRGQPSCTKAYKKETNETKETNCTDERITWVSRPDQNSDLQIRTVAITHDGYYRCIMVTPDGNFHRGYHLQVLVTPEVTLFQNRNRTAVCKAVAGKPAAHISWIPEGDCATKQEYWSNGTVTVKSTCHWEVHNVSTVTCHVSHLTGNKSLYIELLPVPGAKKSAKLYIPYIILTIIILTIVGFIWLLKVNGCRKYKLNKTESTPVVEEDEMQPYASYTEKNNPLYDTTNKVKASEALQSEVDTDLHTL
Experimental: as §1, §2

[3] = target: T3, Cynomolgus monkey CD200RLa (cynomolgus monkey); test: as above
T3 construct: also called cynoCD200RLa
T3 chain: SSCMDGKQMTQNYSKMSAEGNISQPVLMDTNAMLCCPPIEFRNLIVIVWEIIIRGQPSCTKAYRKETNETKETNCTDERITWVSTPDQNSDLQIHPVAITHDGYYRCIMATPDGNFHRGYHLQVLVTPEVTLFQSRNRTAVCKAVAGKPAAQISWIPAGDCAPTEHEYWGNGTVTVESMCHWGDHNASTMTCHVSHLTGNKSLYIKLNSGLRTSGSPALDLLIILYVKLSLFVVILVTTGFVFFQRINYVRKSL
Experimental: as §1, §2

[4] = target: T4, Cynomolgus monkey CD200R long isoform (cynomolgus monkey); test: as above
T4 construct: Stably expressed on CHO cells; also called cynomolgus monkey CD200R long isoform on CHO cells
T4 chain: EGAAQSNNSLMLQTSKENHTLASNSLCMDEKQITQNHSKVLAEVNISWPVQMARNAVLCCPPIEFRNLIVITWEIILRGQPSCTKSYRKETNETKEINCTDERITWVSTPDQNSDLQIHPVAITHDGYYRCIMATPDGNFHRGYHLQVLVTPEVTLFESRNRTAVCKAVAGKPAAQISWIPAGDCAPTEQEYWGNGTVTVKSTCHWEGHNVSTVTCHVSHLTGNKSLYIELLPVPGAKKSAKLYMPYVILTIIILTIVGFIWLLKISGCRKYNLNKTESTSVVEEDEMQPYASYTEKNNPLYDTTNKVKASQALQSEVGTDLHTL
Experimental: as §1, §2

[5] = target: T5, soluble cynomolgus monkey CD200R long isoform ECD-His polypeptide (cynomolgus monkey); test: SPR (Biacore T200), antibody captured on Protein A, receptor ECD-His as analyte, 37 C, n = 3
T5 construct: Expressed in HEK293 or CHO cells; also called cynoCD200R long isoform ECD-His; cynoCD200R-ECD long isoform-His
T5 chain: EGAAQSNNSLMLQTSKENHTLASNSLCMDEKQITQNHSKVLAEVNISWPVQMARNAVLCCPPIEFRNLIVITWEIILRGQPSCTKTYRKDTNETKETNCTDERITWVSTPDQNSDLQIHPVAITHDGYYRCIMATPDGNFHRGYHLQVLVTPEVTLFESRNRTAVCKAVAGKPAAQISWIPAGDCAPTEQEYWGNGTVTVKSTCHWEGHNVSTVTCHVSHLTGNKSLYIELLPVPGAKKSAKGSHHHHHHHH
Text: (§3) A BIACORE™ T200 (GE Healthcare, Piscataway, N.J.) is used to measure the binding kinetics and affinities of Antibody A to soluble human CD200R long isoform extracellular domain (ECD)-His polypeptide (SEQ ID NO: 17) (R&D Systems Cat. No. 10053-CD-050) and soluble cynomolgus monkey CD200R long isoform ECD-His polypeptide (SEQ ID NO: 19). Cynomolgus monkey CD200R ECD long isoform-His is expressed in HEK293 or CHO cells and purified using Ni SEPHAROSE™ excel column (GE Healthcare Life Sciences) and size exclusion chromatography.
(§4) A Series S CM4 chip (GE Healthcare Ca. No. BR-1005-34) is prepared using the manufacturer's EDC/NHS amine coupling method (GE Healthcare Cat. No. BR-1000-50). Briefly, the surfaces of all 4 flow cells are activated by injecting a 1:1 mixture of EDC/NHS for 7 minutes at 10 μL/minute. Protein A (Calbiochem Cat. No. 539202) is diluted to 100 μg/mL in 10 mM acetate pH 4.5 buffer and immobilized for approximately 400 RU onto all 4 flow cells by 7 minute injection at a flow rate of 10 μL/minute. Un-reacted sites are blocked with a 7 minute injection of ethanolamine at 10 μL/minute. Injections of 2×10 μL of glycine pH 1.5 are used to remove any non-covalently associated protein. Running buffer is 1× HBS-EP+ (10 mM HEPES, 150 mM NaCl, 0.05% Tween-20, pH 7.6, Teknova Cat. No. H8022).
(§5) Binding is evaluated using multi-cycle kinetics by an antibody capture method. Samples are diluted in 1× HBS-EP+ running buffer with 0.25% IgG free BSA (Jackson Immuno Research Cat. No. 001-000-161). Each cycle is performed at 37° C. at a flow rate of 20 μL/min for antibody capture to the Protein A chip and 30 μL/min for analyte association and dissociation.

[6] = target: T6, soluble human CD200R long isoform extracellular domain (ECD)-His polypeptide (human, UniProt Q8TD46 29-265); test: as above
T6 construct: Bought from R&D Systems, Cat. No. 10053-CD-050; also called Human CD200R long isoform ECD-His; human CD200R-ECD long isoform-His
T6 sequence: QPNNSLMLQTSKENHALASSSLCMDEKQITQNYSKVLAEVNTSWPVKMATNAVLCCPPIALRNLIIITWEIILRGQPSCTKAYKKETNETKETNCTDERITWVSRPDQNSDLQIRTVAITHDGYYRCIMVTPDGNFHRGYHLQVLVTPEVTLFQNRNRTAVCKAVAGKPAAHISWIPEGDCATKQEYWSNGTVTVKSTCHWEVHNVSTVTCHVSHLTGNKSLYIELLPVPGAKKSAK
Text: as §3, §4, §5

- EC50 [3]: 3.7 µg/mL
- EC50 [4]: 2.3 µg/mL
- Kd [5]: 93.2 nM
- Stoichiometry [5]: 2.6
- koff [5]: 0.00056 s⁻¹
- kon [5]: 6200 M⁻¹ s⁻¹
B1: Antibody A (antibody, human IgG4 S228P, kappa, F234A L235A, V domains shown)
VH: QVQLVESGGGVVQPGRSLRLSCAASGFTFSRYGMHWVRQAPGKGLEWVAVIPYDGSNKYYADSVKGRFTISRDISKNTLYLQMNSLRAEDTAVYYCARRGYYDSSGYYYFYYGMDVWGQGTTVTVSS
VL: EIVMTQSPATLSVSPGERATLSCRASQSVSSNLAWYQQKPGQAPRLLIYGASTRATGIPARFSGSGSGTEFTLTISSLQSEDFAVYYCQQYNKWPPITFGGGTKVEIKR
notes: The control used beside it is IgG4-PAA; also called Anti-human CD200R (Antibody A)
- EC50 [1]: 3.2 µg/mL
- EC50 [2]: 1.1 µg/mL
- Kd [6]: 34.8 nM
- Stoichiometry [6]: 1.9
- koff [6]: 0.00016 s⁻¹
- kon [6]: 4700 M⁻¹ s⁻¹

Reference: patent publication US20220396619A1 (Eli Lilly, published 2022)
